B1: Protein NDRG2: PKGIα substrate, phospho site S332 (protein, UniProt Q9QYG0 2-371, looked up)
Protein NDRG2: AELQEVQITEEKPLLPGQTPETAKEAELAARILLDQGQTHSVETPYGSVTFTVYGTPKPKRPAIFTYHDVGLNYKSCFQPLFRFGDMQEIIQNFVRVHVDAPGMEEGAPVFPLGYQYPSLDQLADMIPCILQYLNFSTIIGVGVGAGAYILSRYALNHPDTVEGLVLINIDPNAKGWMDWAAHKLTGLTSSIPDMILGHLFSQEELSGNSELIQKYRGIIQHAPNLENIELYWNSYNNRRDLNFERGGETTLKCPVMLVVGDQAPHEDAVVECNSKLDPTQTSFLKMADSGGQPQLTQPGKLTEAFKYFLQGMGYMASSCMTRLSRSRTASLTSAASIDGSRSRSRTLSQSSESGTLPSGPPGHTMEVSC
modifications: phosphorylated S332
B2: Polymerase I and transcript release factor: PKGIα substrate, phospho sites T304 (r27) and S302 (r28) (protein, UniProt P85125 1-392, looked up)
Caveolae-associated protein 1: MEDVTLHIVERPYSGYPDASSEGPEPTPGEARATEEPSGTGSDELIKSDQVNGVLVLSLLDKIIGAVDQIQLTQAQLEERQAEMEGAVQSIQGELSKLGKAHATTSNTVSKLLEKVRKVSVNVKTVRGSLERQAGQIKKLEVNEAELLRRRNFKVMIYQDEVKLPAKLSVSKSLKESEALPEKEGDELGEGERPEEDAAAIELSSDEAVEVEEVIEESRAERIKRSGLRRVDDFKKAFSKEKMEKTKVRTRENLEKTRLKTKENLEKTRHTLEKRMNKLGTRLVPVERREKLKTSRDKLRKSFTPDHVVYARSKTAVYKVPPFTFHVKKIREGEVEVLKATEMVEVGPDDDEVGAERGAETDLLRGSSPDVHTLLEITEESDAVLVDKSDSD
modifications: phosphorylated at T304/S302
B3: Myosin light chain kinase 3: PKGIα substrate, phospho site S155 (protein, UniProt E9PT87 1-786, looked up)
Myosin light chain kinase 3: MSGVSEEDPEGLGPQGLPALGGACLVTVDKKLNVLTEKVDRLLHFQEDVTEKLQCVCQGMDHLEQGLHRLEASQELGLAGPGSTSPAAAQAAWPEVLELVRAVRQEGAQHGARLEALFKMVVAVDRAITLVGSTIQNSKVDDFILQGTVPWRKGSLADGPEENKEQAEVAGVKPKHVLNTGSVQAATSRALWEESQKQDTPVGTVEGLPLIIDTSLKGADLTQAGASLRQGVEALDPGQEPPPTEAESRLPALASEDTGTTLELSVAIDRISEVLTSLRMSQSAGEGTSSSKPDCSEPGPQPLGPLTTDSDIHSDEGLPRISVRMREMTTPEELFETQGGSPIGSAEAPGPGTVLEDQIPKGARPFPPLPKRSCNNGGASAEEATGPGAEPIRGPSLVTRDWRDEPVGTTDLQQGRDPGAVSPEPGKDHAAQGPGRTEAGRRVSSAAEAAIVVLDDSAAPPAPFEHRVVSIKDTLISTSYTVSQHEVLGGGRFGQVHRCTERSTGLALAAKIIKVKNIKDREDVKNEINIMNQLSHVNLIQLYDAFESKNSFTLIMEYVDGGELFDRITDEKYHLTELDVVLFTRQICEGVHYLHQHYILHLDLKPENILCVSQTGHQIKIIDFGLARRYKPREKLKVNFGTPEFLAPEVVNYEFVSFPTDMWSVGVITYMLLSGLSPFLGETDAETMNFIVNCSWDFDADTFKGLSEEAKDFVSRLLVKEKSCRMSATQCLKHEWLNHLIAKASGSNVRLRSQLLLQKYMAQRKWKKHFHVVTAVNRLRKFPTCP
modifications: phosphorylated at S155

How the values were obtained:
[1] = system: PKGIα (analogue-sensitive M438G), disulfide-activated; assay: Chemical genetic phosphoproteomic screen, disulfide-activated PKGIα M438G versus unactivated control; assay type: biochemical, human PKGIα; substrates in rat heart homogenate; settings: n=4
Excerpt: (§1) We employed a chemical genetic method[18] to identify direct substrates of cGMP-activated PKGIα and disulfide bond-activated PKGIα in heart tissue. This method involves mutation of the ATP binding-site of the kinase of interest so that it can accept a ‘bulky' N6-alkylated ATP analogue for example, N6^−phenylethyl ATP. An oxygen atom on the γ phosphate is also replaced with a sulfur atom—giving an N6-alkylated ATPγS analogue—so that the mutant kinase catalyses the transfer of a thiophosphate group (–PO3S^3−) to its substrates instead of a phosphate. The thiophosphate group is nucleophilic, providing a basis for substrates of the analogue-sensitive kinase to be purified by a ‘covalent capture' protocol. LC–MS/MS allows identification of the substrate and localization of the phosphorylation site. Thiophosphorylated proteins can also be detected with a thiophosphate ester-specific antibody. Analogue-sensitive mutants of PKGIα and PKGIα C42S (which cannot form the activating intermolecular disulfide bond) were generated by mutating Met438 in the ATP-binding domain to Gly. This mutation was chosen based on a previous study where an analogue-sensitive mutant of the catalytic subunit of PKA—which shares sequence homology with PKGIα—was engineered. Detailed protocols are given below.
(§2) A pCDNA3 expression vector encoding human FLAG-tagged PKGIα (ref. [41]) underwent site-directed mutagenesis to generate constructs for untagged WT, C42S, M438G and C42S/M438G PKGIα. Mutations were introduced using the QuikChange II Site-Directed Mutagenesis Kit (Agilent) according to the manufacturer's instructions. Expression and purification of the PKGIα mutants was performed according to a published method[42] as follows: suspension FreeStyle 293-F cells (ThermoFisher Scientific) were transfected with the appropriate PKGIα construct using the stable cationic polymer polyethyleneimine (PEI) as a transfection reagent. After ∼72 h cells were harvested by centrifugation (400g; room temperature; 15 min), re-suspended in ice cold lysis buffer (25 mM sodium phosphate buffer pH 6.8; 10 mM ethylenediaminetetraacetic acid (EDTA); 100 mM NaCl; 10 mM benzamidine hydrochloride; and 10 mM dithiothreitol (DTT)) and frozen in liquid N2. Cells were lysed by three freeze (liquid N2)-thaw (37 °C) cycles and the lysate was clarified by centrifugation at 140,000g and 4 °C for 30 min. The soluble protein fraction was loaded onto a pre-equilibrated 8-(2-aminoethylamino)adenosine-3′, 5′-cyclic monophosphate column (8-AEA-cAMP agarose; BioLog, Germany) followed by washing with 20 column volumes of lysis buffer. The column was further washed with lysis buffer +3 M NaCl (5 column volumes) and PKGIα was then eluted with lysis buffer +150 mM NaCl and 500 μM cAMP. Removal of cAMP and buffer exchange was achieved by extensive dialysis against 25 mM sodium phosphate buffer pH 6.8, 2 mM EDTA and 100 mM NaCl. For ITC analysis, WT PKGIα was incubated with 10 mM lipoic acid for 2 h on ice to obtain ∼100% disulfide dimer (confirmed by SDS-PAGE). Oxidized WT or C42S PKGIα was further purified by size exclusion chromatography using a HiLoad 16/600 Superdex 200 pg column (GE Healthcare) with 50 mM sodium phosphate buffer pH 7.4 and 100 mM NaCl. Proteins were concentrated using Amicon Ultra centrifugal filter devices (Merck Millipore). DTT was absent in storage buffers so that the activating disulfide bond would not be reduced and so that the PKGIα M438G mutant would be oxidized to disulfide dimer in the presence of air (confirmed by SDS-PAGE). Protein concentration was determined by Pierce BCA assay (ThermoFisher) and enzyme activity was confirmed using the Omnia kinase assay kit (ThermoFisher).
(§3) Male Wistar rats (9–10 weeks; body weight 300–330 g) were euthanized by intraperitoneal injection of sodium pentobarbitone (200 mg kg^−1) with heparin (500 USP units). […]

[2] = system: PKGIα (analogue-sensitive C42S/M438G), cGMP-activated; assay: Chemical genetic phosphoproteomic screen, cGMP-activated PKGIα C42S/M438G versus unactivated control; assay type: biochemical, human PKGIα; substrates in rat heart homogenate; settings: n=4
Excerpt: as §1, §2, §3

[3] = disulfide-activated PKGIα M438G vs basal, 1 h, 30 °C, pH 7.5, rat heart homogenate, label-free LC–MS/MS, * P<0.05 Dunnett: only phospholamban S16
[4] = PKGIα C42S/M438G + 100 μM cGMP vs basal, 1 h, 30 °C, pH 7.5, rat heart homogenate, label-free LC–MS/MS, * P<0.05 Dunnett: all values except phospholamban S16

Molecule	Log2 fold change in phosphorylation, Disulfide versus control [1, 3]	Log2 fold change in phosphorylation, cGMP versus control [2, 4]	Log2 fold change in phosphorylation, Disulfide versus control ([1]; phospho site S302 (second site of this protein), not significant)	Log2 fold change in phosphorylation, cGMP versus control ([2]; phospho site S302 (second site of this protein), * P<0.05)
B1	1.91	3.42*	–	–
B2	1.30	3.05*	1.32	3.16*
B3	1.13	3.16*	–	–

Reference: paper PMC5095173, “Disulfide-activated protein kinase G Iα regulates cardiac diastolic relaxation and fine-tunes the Frank–Starling response” (Nature Communications, 2016)
